Data taken from the supplement of paper PMC5998384.

Columns and labels:
HeLa Kyoto [1] = test: solubility change mitosis vs G1/S (difference of NP-40 vs SDS log2 ratios) (log2 ratio difference); higher = more soluble in mitosis
HeLa Kyoto [2] = test: solubility in G1/S (NP-40 vs SDS abundance) (log2 ratio); higher = more soluble; conditions: cell cycle stage: G1/S
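For solubility change mitosis vs G1/S (difference of NP-40 vs SDS log2 ratios) in this document: synchronized HeLa Kyoto cells (double thymidine block for G1/S, nocodazole release for mitosis), protein amounts in NP-40 versus SDS lysates quantified by mass spectrometry, three biological replicates.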
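For solubility in G1/S (NP-40 vs SDS abundance) in this document: HeLa Kyoto cells arrested at G1/S by double thymidine block, proteins quantified by TMT10plex mass spectrometry in mild NP-40 versus SDS extracts, three biological replicates.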

| Sequence | solubility change mitosis (log2) (HeLa Kyoto [1]) | solubility in G1/S (log2) (HeLa Kyoto [2]) |
| --- | --- | --- |
| MASQLQVFSPPSVSSSAFCSAKKLKIEPSGWDVSGQSSNDKYYTHSKTLPATQGQANSSHQVANFNIPAYDQGLLLPAPAVEHIVVTAADSSGSAATSTFQSSQTLTHRSNVSLLEPYQKCGLKRKSEEVDSNGSVQIIEEHPPLMLQNRTVVGAAATTTTVTTKSSSSSGEGDYQLVQHEILCSMTNSYEVLEFLGRGTFGQVAKCWKRSTKEIVAIKILKNHPSYARQGQIEVSILSRLSSENADEYNFVRSYECFQHKNHTCLVFEMLEQNLYDFLKQNKFSPLPLKYIRPILQQVATALMKLKSLGLIHADLKPENIMLVDPVRQPYRVKVIDFGSASHVSKAVCSTYLQSRYYRAPEIILGLPFCEAIDMWSLGCVIAELFLGWPLYPGASEYDQIRYISQTQGLPAEYLLSAGTKTTRFFNRDPNLGYPLWRLKTPEEHELETGIKSKEARKYIFNCLDDMAQVNMSTDLEGTDMLAEKADRREYIDLLKKMLTIDADKRITPLKTLNHQFVTMTHLLDFPHSNHVKSCFQNMEICKRRVHMYDTVSQIKSPFTTHVAPNTSTNLTMSFSNQLNTVHNQASVLASSSTAAAATLSLANSDVSLLNYQSALYPSSAAPVPGVAQQGVSLQPGTTQICTQTDPFQQTFIVCPPAFQTGLQATTKHSGFPVRMDNAVPIVPQAPAAQPLQIQSGVLTQGSCTPLMVATLHPQVATITPQYAVPFTLSCAAGRPALVEQTAAVLQAWPGGTQQILLPSTWQQLPGVALHNSVQPTAMIPEAMGSGQQLADWRNAHSHGNQYSTIMQQPSLLTNHVTLATAQPLNVGVAHVVRQQQSSSLPSKKNKQSAPVSSKSSLDVLPSQVYSLVGSSPLRTTSSYNSLVPVQDQHQPIIIPDTPSPPVSVITIRSDTDEEEDNKYKPSSSGLKPRSNVISYVTVNDSPDSDSSLSSPYSTDTLSALRGNSGSVLEGPGRVVADGTGTRTIIVPPLKTQLGDCTVATQASGLLSNKTKPVASVSGQSSGCCITPTGYRAQRGGTSAAQPLNLSQNQQSSAAPTSQERSSNPAPRRQQAFVAPLSQAPYTFQHGSPLHSTGHPHLAPAPAHLPSQAHLYTYAAPTSAAALGSTSSIAHLFSPQGSSRHAAAYTTHPSTLVHQVPVSVGPSLLTSASVAPAQYQHQFATQSYIGSSRGSTIYTGYPLSPTKISQYSYL [HIPK1] | -0.386 | 0.478 |
| MASSHSSSPVPQGSSSDVFFKIEVDPSKHIRPVPSLPDVCPKEPTGDSHSLYVAPSLVTDQHRWTVYHSKVNLPAALNDPRLAKRESDFFTKTWGLDFVDTEVIPSFYLPQISKEHFTVYQQEISQREKIHERCKNICPPKDTFERTLLHTHDKSRTDLEQVPKIFMKPDFALDDSLTFNSVLPWSHFNTAGGKGNRDAASSKLLQEKLSHYLDIVEVNIAHQISLRSEAFFHAMTSQHELQDYLRKTSQAVKMLRDKIAQIDKVMCEGSLHILRLALTRNNCVKVYNKLKLMATVHQTQPTVQVLLSTSEFVGALDLIATTQEVLQQELQGIHSFRHLGSQLCELEKLIDKMMIAEFSTYSHSDLNRPLEDDCQVLEEERLISLVFGLLKQRKLNFLEIYGEKMVITAKNIIKQCVINKVSQTEEIDTDVVVKLADQMRMLNFPQWFDLLKDIFSKFTIFLQRVKATLNIIHSVVLSVLDKNQRTRELEEISQQKNAAKDNSLDTEVAYLIHEGMFISDAFGEGELTPIAVDTTSQRNASPNSEPCSSDSVSEPECTTDSSSSKEHTSSSAIPGGVDIMVSEDMKLTDSELGKLANNIQELLYSASDICHDRAVKFLMSRAKDGFLEKLNSMEFITLSRLMETFILDTEQICGRKSTSLLGALQSQAIKFVNRFHEERKTKLSLLLDNERWKQADVPAEFQDLVDSLSDGKIALPEKKSGATEERKPAEVLIVEGQQYAVVGTVLLLIRIILEYCQCVDNIPSVTTDMLTRLSDLLKYFNSRSCQLVLGAGALQVVGLKTITTKNLALSSRCLQLIVHYIPVIRAHFEARLPPKQYSMLRHFDHITKDYHDHIAEISAKLVAIMDSLFDKLLSKYEVKAPVPSACFRNICKQMTKMHEAIFDLLPEEQTQMLFLRINASYKLHLKKQLSHLNVINDGGPQNGLVTADVAFYTGNLQALKGLKDLDLNMAEIWEQKR [VPS54] | 0.126 | -0.136 |
| MASSLLAGERLVRALGPGGELEPERLPRKLRAELEAALGKKHKGGDSSSGPQRLVSFRLIRDLHQHLRERDSKLYLHELLEGSEIYLPEVVKPPRNPELVARLEKIKIQLANEEYKRITRNVTCQDTRHGGTLSDLGKQVRSLKALVITIFNFIVTVVAAFVCTYLGSQYIFTEMASRVLAALIVASVVGLAELYVMVRAMEGELGEL [TMEM199] | -0.0986 | -0.349 |
| MASTRSIELEHFEERDKRPRPGSRRGAPSSSGGSSSSGPKGNGLIPSPAHSAHCSFYRTRTLQALSSEKKAKKARFYRNGDRYFKGLVFAISSDRFRSFDALLIELTRSLSDNVNLPQGVRTIYTIDGSRKVTSLDELLEGESYVCASNEPFRKVDYTKNINPNWSVNIKGGTSRALAAASSVKSEVKESKDFIKPKLVTVIRSGVKPRKAVRILLNKKTAHSFEQVLTDITEAIKLDSGVVKRLCTLDGKQVTCLQDFFGDDDVFIACGPEKFRYAQDDFVLDHSECRVLKSSYSRSSAVKYSGSKSPGPSRRSKSPASVNGTPSSQLSTPKSTKSSSSSPTSPGSFRGLKQISAHGRSSSNVNGGPELDRCISPEGVNGNRCSESSTLLEKYKIGKVIGDGNFAVVKECIDRSTGKEFALKIIDKAKCCGKEHLIENEVSILRRVKHPNIIMLVEEMETATELFLVMELVKGGDLFDAITSSTKYTERDGSAMVYNLANALRYLHGLSIVHRDIKPENLLVCEYPDGTKSLKLGDFGLATVVEGPLYTVCGTPTYVAPEIIAETGYGLKVDIWAAGVITYILLCGFPPFRSENNLQEDLFDQILAGKLEFPAPYWDNITDSAKELISQMLQVNVEARCTAGQILSHPWVSDDASQENNMQAEVTGKLKQHFNNALPKQNSTTTGVSVIMNTALDKEGQIFCSKHCQDSGRPGMEPISPVPPSVEEIPVPGEAVPAPTPPESPTPHPPPAAPGGERAGTWRRHRD [DCLK2] | -0.0347 | -0.0668 |
| MATLIYVDKENGEPGTRVVAKDGLKLGSGPSIKALDGRSQVSTPRFGKTFDAPPALPKATRKALGTVNRATEKSVKTKGPLKQKQPSFSAKKMTEKTVKAKSSVPASDDAYPEIEKFFPFNPLDFESFDLPEEHQIAHLPLSGVPLMILDEERELEKLFQLGPPSPVKMPSPPWESNLLQSPSSILSTLDVELPPVCCDIDI [PTTG1] | 0.554 | 0.176 |
| MATLWGGLLRLGSLLSLSCLALSVLLLAQLSDAAKNFEDVRCKCICPPYKENSGHIYNKNISQKDCDCLHVVEPMPVRGPDVEAYCLRCECKYEERSSVTIKVTIIIYLSILGLLLLYMVYLTLVEPILKRRLFGHAQLIQSDDDIGDHQPFANAHDVLARSRSRANVLNKVEYAQQRWKLQVQEQRKSVFDRHVVLS [TMEM9B] | -0.12 | -0.235 |
| MAVAVGRPSNEELRNLSLSGHVGFDSLPDQLVNKSTSQGFCFNILCVGETGIGKSTLMDTLFNTKFESDPATHNEPGVRLKARSYELQESNVRLKLTIVDTVGFGDQINKDDSYKPIVEYIDAQFEAYLQEELKIKRSLFNYHDTRIHACLYFIAPTGHSLKSLDLVTMKKLDSKVNIIPIIAKADTIAKNELHKFKSKIMSELVSNGVQIYQFPTDEETVAEINATMSVHLPFAVVGSTEEVKIGNKMAKARQYPWGVVQVENENHCDFVKLREMLIRVNMEDLREQTHTRHYELYRRCKLEEMGFKDTDPDSKPFSLQETYEAKRNEFLGELQKKEEEMRQMFVMRVKEKEAELKEAEKELHEKFDLLKRTHQEEKKKVEDKKKELEEEVNNFQKKKAAAQLLQSQAQQSGAQQTKKDKDKKNASFT [SEPT11] | 0.12 | -0.0512 |
| MAVTKELLQMDLYALLGIEEKAADKEVKKAYRQKALSCHPDKNPDNPRAAELFHQLSQALEVLTDAAARAAYDKVRKAKKQAAERTQKLDEKRKKVKLDLEARERQAQAQESEEEEESRSTRTLEQEIERLREEGSRQLEEQQRLIREQIRQERDQRLRGKAENTEGQGTPKLKLKWKCKKEDESKGGYSKDVLLRLLQKYGEVLNLVLSSKKPGTAVVEFATVKAAELAVQNEVGLVDNPLKISWLEGQPQDAVGRSHSGLSKGSVLSERDYESLVMMRMRQAAERQQLIARMQQEDQEGPPT [DNAJC17] | 0.205 | 0.702 |
